target: pxEBN4-ACE2-AAA-His (human) (UniProt Q9BYF1)
Also: test concentration or dose not given here.

In order of rising Response, shift in Wavelength (nm):
1. pxENB1-His-TEV-FLS-TN (from UniProt P0DTC2 14-1213) (ligand)  0.0257 nm
2. pxENB8-FLS-TN-His (from UniProt P0DTC2 15-1213) (ligand)  0.0591 nm
3. pxENB12-FLS-His (from UniProt P0DTC2 15-1213) (ligand)  0.127 nm
4. pxEBNCP16-IL2-FLS-CT-His (from UniProt P0DTC2 16-1213) (ligand)  0.145 nm
5. pxENB5-his-TEV-FLS (from UniProt P0DTC2 14-1213) (ligand)  0.185 nm
6. pxENBEP17_TPA_Nuc(1-182)_Spike (15-1216, GAAS, PP)_10xHis (ligand)  0.232 nm
7. pxENBEP18_Spike_Nuc(1-182)_10xHis (ligand)  0.277 nm
8. pxENB17-RBD-His (from UniProt P0DTC2 319-541) (ligand)  0.301 nm
9. pxENB14-His-TEV-RBD (from UniProt P0DTC2 319-541) (ligand)  0.304 nm
10. pxENB2-His-TEV-FLS-CT (from UniProt P0DTC2 14-1213) (ligand)  0.344 nm
11. pxEBNCP15-mIgGHC-FLS-CT-His (from UniProt P0DTC2 16-1213) (ligand)  0.492 nm
12. pxEBNCP14-tPa-FLS-CT-His (from UniProt P0DTC2 16-1213) (ligand)  0.529 nm
13. pxENB9-FLS-CT-His (from UniProt P0DTC2 15-1213) (ligand)  0.555 nm

target: pxEBN4-ACE2-AAA-His (human) (UniProt Q9BYF1); remark: another data set of the same source

In order of rising Response, shift in Wavelength (nm):
1. pxENBCP17-FLS-CT-His-SBP (from UniProt P0DTC2 15-1213) (ligand)  0.0382 nm
2. pxENBCP19-FLS-CT-His-StrepTagII (from UniProt P0DTC2 15-1213) (ligand)  0.042 nm
3. pxENBCP20-FLS-CT-His-TST (from UniProt P0DTC2 15-1213) (ligand)  0.0719 nm
